Where a chain is given by its changes, count along the chain named. Names may count otherwise.
B1: D111S: murine B7-DC-Ig with the D111S substitution (protein)
chain: LFTVTAPKEVYTVDVGSSVSLECDFDRRECTELEGIRASLQKVENDTSLQSERATLLEEQLPLGKALFHIPSVQVRDSGQYRCLVICGAAWSYKYLTVKVKASYMRIDTRILEVPGTGEVQLTCQARGYPLAEVSWQNVSVPANTSHIRTPEGLYQVTSVLRLKPQPSRNFSCMFWNAHMKELTSAIIDPLSRMEPKVPRTWEPRGPTIKPCPPCKCPAPNLLGGPSVFIFPPKIKDVLMISLSPIVTCVVVDVSEDDPDVQISWFVNNVEVHTAQTQTHREDYNSTLRVVSALPIQHQDWMSGKEFKCKVNNKDLPAPIERTISKPKGSVRAPQVYVLPPPEEEMTKKQVTLTCMVTDFMPEDIYVEWTNNGKTELNYKNTEPVLDSDGSYFMYSKLRVEKKNWVERNSYSCSVVHEGLHNHHTTKSFSRTPGK
B2: K113S: murine B7-DC-Ig with the K113S substitution (protein)
chain: B1 chain with S92D, K94S
B3: wild type murine B7-DC-Ig: murine PD-L2 (B7-DC) fusion protein; representative sequence SEQ ID NO: 53/54 (protein, listed as Mus musculus)
chain: MLLLLPILNLSLQLHPVAALFTVTAPKEVYTVDVGSSVSLECDFDRRECTELEGIRASLQKVENDTSLQSERATLLEEQLPLGKALFHIPSVQVRDSGQYRCLVICGAAWDYKYLTVKVKASYMRIDTRILEVPGTGEVQLTCQARGYPLAEVSWQNVSVPANTSHIRTPEGLYQVTSVLRLKPQPSRNFSCMFWNAHMKELTSAIIDPLSRMEPKVPRTWEPRGPTIKPCPPCKCPAPNLLGGPSVFIFPPKIKDVLMISLSPIVTCVVVDVSEDDPDVQISWFVNNVEVHTAQTQTHREDYNSTLRVVSALPIQHQDWMSGKEFKCKVNNKDLPAPIERTISKPKGSVRAPQVYVLPPPEEEMTKKQVTLTCMVTDFMPEDIYVEWTNNGKTELNYKNTEPVLDSDGSYFMYSKLRVEKKNWVERNSYSCSVVHEGLHNHHTTKSFSRTPGK

What was measured:
[1] = system: CT26 colorectal tumor cells; experiment: Established CT26 colorectal tumor model; settings: 100 mg/kg cyclophosphamide on day 10, alone
Description: Balb/C mice at age of 9 to 11 weeks were implanted subcutaneously with 1.0×10^5 CT26 colorectal tumor cells.

[2] = biological target: T1, recombinant human PD-1/Fc (Homo sapiens, UniProt Q15116); experiment: PD-1 binding ELISA, human B7-DC-Ig; settings: four different lots, FIG. 1A
T1 construct: Fc (immunoglobulin Fc fusion partner); purchased R&D Systems
T1 sequence (Q15116 with tags, fused parts or gaps limits assumed): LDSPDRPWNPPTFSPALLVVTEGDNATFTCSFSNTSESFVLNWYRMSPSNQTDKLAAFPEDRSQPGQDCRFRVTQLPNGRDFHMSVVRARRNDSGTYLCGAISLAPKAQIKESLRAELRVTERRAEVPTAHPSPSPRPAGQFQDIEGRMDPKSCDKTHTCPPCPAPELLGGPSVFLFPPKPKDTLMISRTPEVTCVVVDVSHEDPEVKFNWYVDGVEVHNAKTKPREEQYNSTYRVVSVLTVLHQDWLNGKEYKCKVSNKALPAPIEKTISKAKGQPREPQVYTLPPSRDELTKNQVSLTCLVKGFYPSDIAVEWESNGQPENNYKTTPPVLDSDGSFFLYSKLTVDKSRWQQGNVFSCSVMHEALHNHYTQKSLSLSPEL
Description: (§1) 96-well ELISA plates were coated with 100 μL 0.75 ug/mL recombinant human PD-1/Fc (R&D Systems) diluted in BupH Carbonate/Bicarbonate pH 9.4 buffer (Pierce) for 2 hours and then blocked with BSA solution (Jackson ImmunoResearch) for 90-120 minutes. […] Absorbance at 450 nm was read using a plate reader (Molecular Devices) and data were analyzed in SoftMax using a 4-parameter logistic fit.

[3] = biological target: T2, recombinant mouse PD-1/Fc (Mus musculus, UniProt Q02242); experiment: PD-1 binding ELISA, murine B7-DC-Ig; settings: FIG. 1B
T2 construct: Fc (immunoglobulin Fc fusion partner); purchased R&D Systems
T2 sequence (Q02242 with tags, fused parts or gaps limits assumed): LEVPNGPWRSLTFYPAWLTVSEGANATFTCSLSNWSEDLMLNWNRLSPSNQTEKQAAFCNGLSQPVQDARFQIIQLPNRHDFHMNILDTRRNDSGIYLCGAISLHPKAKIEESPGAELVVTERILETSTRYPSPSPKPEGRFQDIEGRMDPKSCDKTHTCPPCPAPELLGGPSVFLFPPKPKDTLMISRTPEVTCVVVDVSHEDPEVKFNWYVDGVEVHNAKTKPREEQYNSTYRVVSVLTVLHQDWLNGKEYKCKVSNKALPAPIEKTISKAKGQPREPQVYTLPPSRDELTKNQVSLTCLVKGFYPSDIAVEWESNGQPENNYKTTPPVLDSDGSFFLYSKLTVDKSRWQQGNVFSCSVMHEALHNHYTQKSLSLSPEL
Description: as §1, with “mouse” for “human”, “(Candor-Bioscience)” for “(Jackson ImmunoResearch)”, “90” for “90-120”

Molecule	binding to PD-1 in PD-1 binding ELISA (OD450) [3]	further results
O=P1(N(CCCl)CCCl)NCCCO1 (centres unmarked) [CTX, cyclophosphamide]	–	outcome of tumor-bearing mice (death or euthanasia) [1]: died as a result of tumor growth or were euthanized
human B7-DC-Ig: human PD-L2 (B7-DC) fusion protein; representative sequence SEQ ID NO: 56/57	–	binding to PD-1 in PD-1 binding ELISA (OD450) [2]: binding to PD-1
B1	reduced binding to PD-1	–
B2	reduced binding to PD-1	–
B3	binding to PD-1	–

Source: patent US20140227262A1, “PD-1 Antagonists and Methods for Treating Infectious Disease” (AMPLIMMUNE, INC., priority 2008, published 2014)
